Patent US11839630B2, “CAR-T cells targeting IL-1RAP and their use” (ETABLISSEMENT FRANCAIS DU SANG, priority 2017, dated 2023)

Columns and labels:
[1] = tested on: IL-1RAP+ leukemia expressing stem cells CD34+CD38+ or CD34+CD38-; assay: Flow cytometry immunophenotyping of primary cells from CML patients; type: binding, human; details: bone marrow or peripheral blood of patient at diagnosis or after 12 months of Imatinib
Text: FIG. 3: Immunophenotyping on peripheral blood (PM) or bone marrow (BM) of 2 CML positive patients at diagnosis (Diag) or after Imatinib (IM) treatment. IL-1RAP (#E3C3) was used in combination with CD34+ and CD38− fluorescent staining. Fluorochrome-conjugated isotype control mAbs from the different mAbs were systematically used.
Hematopoietic stem cells from CML patients were tracked using a panel of CD45, CD34, CD38, CD33, CD133, CD117 including murine Alexa Fluor® 488 labelled IL-1RAP antibody clone #E3C3. Transduced cells were stained using a panel of antibodies including CD3, CD4, CD8, and CD19 in order to differentiate helper or cytotoxic GMTC. Naïve, central or memory T cells subsets were analyzed using a panel of CD45RA, CD62L, CD95, CCR7 monoclonal antibodies. Cells were collected using a FACSCANTO™ II cytometer (BD Biosciences, Le Pont de Claix, France) and analyzed using the DIVA 6.1 software (BD Biosciences, Le Pont de Claix, France).
Immunophenotyping on peripheral blood or bone marrow of 2 CML-positive patients without or after Imatinib (TKI) treatment has been performed. IL-1RAP (#E3C3) was used in combination with CD34^+ and CD38^− fluorescent staining. Fluorochrome-conjugated isotype control monoclonal antibodies from the different monoclonal antibodies were systematically used.

HSCs = assay: IL-1RAP cell surface staining of healthy HSCs; type: binding, human
Experimental: FIG. 23: Effect of IL-1RAP CAR T cells on healthy hematopoietic cells and efficiency of the safety suicide gene iCASP9 cassette. (A) IL-1RAP cell surface expression on peripheral blood (left) or bone marrow (right) cells from healthy donors (n=5). SSC-A/CD45+ allowed discrimination of subpopulations as lymphocytes (SSC-A low), monocytes (CD33+), granulocytes (SSC-A high), or HSCs (CD33−/CD34+). RFI was calculated from isotype staining and provided in each window. (B) Representative (1 of 3) IL-1RAP staining of whole human cord blood cells. IL-1RAP staining is provided for whole CD34+, CD34+/CD38−, and CD34+/CD38+ HSC cord blood subpopulations. […] Percentages were calculated using absolute cell number determined using Trucount™ tubes based on 5000 fluorescent-bead cytometry acquisition. […] The quantification was performed after acquiring 5000 fluorescent beads. […] Cell killing was calculated as follows: % Dead cells=[1−(absolute number of viable cells in AP1903-treated cells/absolute number of viable cells in untreated cells)]×100. […] (G) Absolute quantification of IL-1RAP CAR T cells injected in a tumor (CML KU812, i.v.) xenograft NSG model 24 h after i.p. AP1903 (white bars) treatment (n=3 mice/group). […]

B1: #E3C3: mouse anti-hIL-1RAP monoclonal antibody subclone generated by standard hybridoma technique; VH SEQ ID NO: 2, VL SEQ ID NO: 4 (antibody, V domains shown)
VH: MGWSCIILFLVATATGVNSQVQLQQPGAELMMPGASVKVSCEASGYTFTDSWMHWVKQRPGQGLEWIGAIDPSDSYTTYNQKFTGKATLSVDESSNTAYMQLSSLTSEDSAVYYCARYYSGSNYISPFPYWGQGTLVTVSA
VL: MESQIQVFVFVFLWLSGVDGDIVMTQSHKFMSTSVGDRVTITCKASLDVSTAVAWYQQKPGQSPKLLIYSASYRYTGVPDRFTGSGSGTDFTFTISSVQAEDLAVYYCQQHYSPPFTFGSGTNLEIK
modifications: Amino acid sequence of chain H (VH) of murine scFv anti-IL-1RAP; Amino acid sequence of chain K (VL) of murine scFv anti-IL-1RAP
discrimination of IL-1RAP+ stem cell subpopulations [1]: allowed to discriminate IL-1RAP+ leukemia expressing stem cells
detection of HSCs (HSCs; bone marrow from healthy donors or normal cord blood): did not detect
RFI of HSC staining (HSCs; bone marrow from healthy donors, n=5): < 1.2
